Literature values as cited in patent US20110217294A1, “COMBINATION OF HGF INHIBITOR AND HEDGEHOG INHIBITOR TO TREAT CANCER” (priority 2009, published 2011).

Tests used:
[1] = molecular target: cMet receptor (Homo sapiens, UniProt P08581); details: high affinity binding site
[2] = molecular target: heparin sulfate proteoglycans (HSPG); details: low affinity binding site

cMet receptor, sequence (P08581 25-1390): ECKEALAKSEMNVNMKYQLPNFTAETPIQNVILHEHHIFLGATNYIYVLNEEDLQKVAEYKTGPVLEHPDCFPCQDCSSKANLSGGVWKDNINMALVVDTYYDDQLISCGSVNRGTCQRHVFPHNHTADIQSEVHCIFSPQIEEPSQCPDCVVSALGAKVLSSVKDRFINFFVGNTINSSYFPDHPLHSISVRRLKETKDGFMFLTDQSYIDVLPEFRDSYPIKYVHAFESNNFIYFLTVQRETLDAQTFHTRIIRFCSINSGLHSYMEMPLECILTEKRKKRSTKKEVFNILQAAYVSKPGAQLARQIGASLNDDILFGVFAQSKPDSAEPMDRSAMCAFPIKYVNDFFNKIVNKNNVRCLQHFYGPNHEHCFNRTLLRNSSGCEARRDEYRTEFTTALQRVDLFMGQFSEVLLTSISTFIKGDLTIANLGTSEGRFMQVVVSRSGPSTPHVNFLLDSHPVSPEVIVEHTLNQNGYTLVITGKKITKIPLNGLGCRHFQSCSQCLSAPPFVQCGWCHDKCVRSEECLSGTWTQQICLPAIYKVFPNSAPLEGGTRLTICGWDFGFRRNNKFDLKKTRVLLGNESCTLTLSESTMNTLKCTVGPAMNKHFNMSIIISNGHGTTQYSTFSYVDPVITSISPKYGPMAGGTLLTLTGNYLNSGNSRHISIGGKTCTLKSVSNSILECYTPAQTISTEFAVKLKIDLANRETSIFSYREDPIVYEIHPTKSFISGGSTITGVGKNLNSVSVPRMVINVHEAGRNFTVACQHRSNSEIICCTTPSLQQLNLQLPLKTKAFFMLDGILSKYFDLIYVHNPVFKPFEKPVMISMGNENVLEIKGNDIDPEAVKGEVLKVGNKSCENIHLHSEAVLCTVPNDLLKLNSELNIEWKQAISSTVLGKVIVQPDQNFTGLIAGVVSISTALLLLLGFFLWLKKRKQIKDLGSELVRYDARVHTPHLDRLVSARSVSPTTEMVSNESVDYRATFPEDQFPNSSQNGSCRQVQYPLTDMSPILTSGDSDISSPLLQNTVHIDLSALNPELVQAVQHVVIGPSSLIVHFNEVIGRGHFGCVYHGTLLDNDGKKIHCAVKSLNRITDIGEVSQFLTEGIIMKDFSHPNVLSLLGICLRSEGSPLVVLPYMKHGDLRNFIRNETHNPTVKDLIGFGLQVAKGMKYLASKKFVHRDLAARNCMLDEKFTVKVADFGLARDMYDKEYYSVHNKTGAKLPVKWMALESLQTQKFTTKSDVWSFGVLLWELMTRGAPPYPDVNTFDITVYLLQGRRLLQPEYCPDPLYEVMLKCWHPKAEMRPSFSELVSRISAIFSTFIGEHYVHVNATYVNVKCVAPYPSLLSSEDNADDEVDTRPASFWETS

Kd [1]: 0.2 nM | Kd [2]: 1 nM
Substance: HGF: Human Hepatocyte Growth Factor, 102 kDa heterodimeric polypeptide
